Assays:
[1] = target: T1, MLO-Y4 cell surface proteins (Mus musculus, UniProt P63038); assay: Crosslinking/co-immunoprecipitation/mass spectrometry (TMT quantitative proteomics) to identify irisin receptors; assay type: binding; conditions: co-precipitated protein Hspd1 (CH60_MOUSE)
T1 construct: endogenous in cells; host or cells: MLO-Y4
In short: (§1)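 Relative protein abundance came from 6-plex TMT MS3 quantitation on an Orbitrap Fusion Lumos, after in-gel trypsin digestion of Coomassie-stained SDS-PAGE lanes. Input was a Ni-NTA pulldown (250 mM imidazole elution) of lysates from murine MLO-Y4 cells. These cells were treated on ice with His-tagged irisin or adipsin (10 nM, 20 min) in serum-free medium, then crosslinked with 1.5 mM DTSSP for 30 min.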

[2] = target: T2, MLO-Y4 cell surface proteins (Mus musculus, UniProt P59242); assay: as above; assay type: binding; conditions: co-precipitated protein Cgn (CING_MOUSE)
T2 construct: endogenous in cells; host or cells: MLO-Y4
T2 sequence (P59242 1-1191): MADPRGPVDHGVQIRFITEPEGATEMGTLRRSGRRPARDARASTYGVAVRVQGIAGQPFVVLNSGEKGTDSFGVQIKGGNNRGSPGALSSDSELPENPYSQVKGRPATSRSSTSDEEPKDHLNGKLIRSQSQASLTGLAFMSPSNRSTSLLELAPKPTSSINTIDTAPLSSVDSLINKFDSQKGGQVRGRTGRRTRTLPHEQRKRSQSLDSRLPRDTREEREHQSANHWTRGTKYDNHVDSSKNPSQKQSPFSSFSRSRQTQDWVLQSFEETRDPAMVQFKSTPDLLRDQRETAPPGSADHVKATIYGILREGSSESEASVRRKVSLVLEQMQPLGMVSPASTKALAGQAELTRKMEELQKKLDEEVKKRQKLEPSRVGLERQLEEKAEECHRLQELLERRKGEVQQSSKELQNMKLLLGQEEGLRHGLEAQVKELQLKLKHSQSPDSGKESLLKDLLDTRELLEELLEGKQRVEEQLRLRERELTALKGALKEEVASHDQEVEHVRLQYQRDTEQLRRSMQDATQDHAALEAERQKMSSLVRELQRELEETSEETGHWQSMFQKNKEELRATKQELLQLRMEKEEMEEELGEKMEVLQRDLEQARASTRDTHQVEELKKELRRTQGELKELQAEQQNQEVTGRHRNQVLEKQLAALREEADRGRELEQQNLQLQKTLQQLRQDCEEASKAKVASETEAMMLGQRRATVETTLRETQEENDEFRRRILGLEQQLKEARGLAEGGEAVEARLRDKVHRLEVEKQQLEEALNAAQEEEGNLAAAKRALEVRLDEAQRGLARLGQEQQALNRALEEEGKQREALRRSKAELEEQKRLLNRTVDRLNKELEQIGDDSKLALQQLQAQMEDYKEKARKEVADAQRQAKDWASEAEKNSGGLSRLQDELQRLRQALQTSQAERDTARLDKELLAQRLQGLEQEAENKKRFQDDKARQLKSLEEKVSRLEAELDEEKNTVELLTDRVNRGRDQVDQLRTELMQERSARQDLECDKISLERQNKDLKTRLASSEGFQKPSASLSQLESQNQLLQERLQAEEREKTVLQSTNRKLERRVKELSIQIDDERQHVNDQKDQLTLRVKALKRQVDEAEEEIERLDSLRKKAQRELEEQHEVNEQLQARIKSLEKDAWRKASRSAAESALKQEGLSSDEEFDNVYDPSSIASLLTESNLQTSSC
In short: as §1

T1 sequence (P63038 27-573): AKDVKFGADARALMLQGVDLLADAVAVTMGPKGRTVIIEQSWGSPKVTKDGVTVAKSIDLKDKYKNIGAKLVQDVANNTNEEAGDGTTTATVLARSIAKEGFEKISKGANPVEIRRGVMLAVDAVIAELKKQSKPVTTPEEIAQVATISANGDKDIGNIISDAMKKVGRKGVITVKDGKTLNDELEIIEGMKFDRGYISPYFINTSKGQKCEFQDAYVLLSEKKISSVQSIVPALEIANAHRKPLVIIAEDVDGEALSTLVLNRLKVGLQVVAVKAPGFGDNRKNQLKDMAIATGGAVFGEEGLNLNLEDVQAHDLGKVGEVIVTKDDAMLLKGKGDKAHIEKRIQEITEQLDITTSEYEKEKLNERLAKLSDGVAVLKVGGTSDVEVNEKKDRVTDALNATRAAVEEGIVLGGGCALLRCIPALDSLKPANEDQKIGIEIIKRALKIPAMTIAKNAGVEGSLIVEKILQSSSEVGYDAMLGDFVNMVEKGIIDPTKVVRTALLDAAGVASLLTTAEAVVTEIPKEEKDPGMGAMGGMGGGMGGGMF

TMT signal-to-noise ratio [1]: 4263.9 | TMT signal-to-noise ratio [2]: 200.289
Substance: adipsin
